Experimental data taken from the supplement of paper PMC10065799, “High-throughput profiling of sequence recognition by tyrosine kinases and SH2 domains using bacterial peptide display” (eLife, 2023).
One block for each sequence: values may come before it.

Columns and labels:
MERTK = MERTK (UniProt Q12866); experiment: phosphorylation enrichment, bacterial display (enrichment ratio); higher = better substrate or ligand; peptides without Tyr show the background
Fer (mouse) = experiment: as above
AncSZ = experiment: as above
FGFR1 = FGFR1 (UniProt P11362); experiment: as above
Chain of FGFR1 (P11362 whole entry, looked up): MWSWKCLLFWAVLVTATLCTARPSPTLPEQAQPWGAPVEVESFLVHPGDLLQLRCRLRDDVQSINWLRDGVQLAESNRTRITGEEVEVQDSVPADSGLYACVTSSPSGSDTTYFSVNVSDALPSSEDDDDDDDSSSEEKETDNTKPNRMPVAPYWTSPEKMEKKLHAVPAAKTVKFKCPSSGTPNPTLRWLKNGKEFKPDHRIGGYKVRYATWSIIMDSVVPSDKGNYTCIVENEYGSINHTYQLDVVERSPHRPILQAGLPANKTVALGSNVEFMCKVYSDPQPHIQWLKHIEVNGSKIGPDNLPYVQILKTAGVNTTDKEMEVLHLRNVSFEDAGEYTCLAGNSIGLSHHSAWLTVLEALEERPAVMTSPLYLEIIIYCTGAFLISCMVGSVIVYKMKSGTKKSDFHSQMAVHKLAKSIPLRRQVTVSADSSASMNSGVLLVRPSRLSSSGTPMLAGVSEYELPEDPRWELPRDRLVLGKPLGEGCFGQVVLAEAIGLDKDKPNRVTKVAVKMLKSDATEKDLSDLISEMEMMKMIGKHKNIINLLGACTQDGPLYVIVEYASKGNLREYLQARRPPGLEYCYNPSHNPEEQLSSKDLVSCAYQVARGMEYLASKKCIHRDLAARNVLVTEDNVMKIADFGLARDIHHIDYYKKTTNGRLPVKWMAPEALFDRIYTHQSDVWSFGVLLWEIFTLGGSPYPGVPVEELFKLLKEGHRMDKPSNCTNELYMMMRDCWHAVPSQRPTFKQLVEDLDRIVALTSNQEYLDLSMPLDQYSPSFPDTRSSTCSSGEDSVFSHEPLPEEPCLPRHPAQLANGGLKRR

FGFR3 = FGFR3 (UniProt P22607); experiment: as above
Chain of FGFR3 (P22607 whole entry, looked up): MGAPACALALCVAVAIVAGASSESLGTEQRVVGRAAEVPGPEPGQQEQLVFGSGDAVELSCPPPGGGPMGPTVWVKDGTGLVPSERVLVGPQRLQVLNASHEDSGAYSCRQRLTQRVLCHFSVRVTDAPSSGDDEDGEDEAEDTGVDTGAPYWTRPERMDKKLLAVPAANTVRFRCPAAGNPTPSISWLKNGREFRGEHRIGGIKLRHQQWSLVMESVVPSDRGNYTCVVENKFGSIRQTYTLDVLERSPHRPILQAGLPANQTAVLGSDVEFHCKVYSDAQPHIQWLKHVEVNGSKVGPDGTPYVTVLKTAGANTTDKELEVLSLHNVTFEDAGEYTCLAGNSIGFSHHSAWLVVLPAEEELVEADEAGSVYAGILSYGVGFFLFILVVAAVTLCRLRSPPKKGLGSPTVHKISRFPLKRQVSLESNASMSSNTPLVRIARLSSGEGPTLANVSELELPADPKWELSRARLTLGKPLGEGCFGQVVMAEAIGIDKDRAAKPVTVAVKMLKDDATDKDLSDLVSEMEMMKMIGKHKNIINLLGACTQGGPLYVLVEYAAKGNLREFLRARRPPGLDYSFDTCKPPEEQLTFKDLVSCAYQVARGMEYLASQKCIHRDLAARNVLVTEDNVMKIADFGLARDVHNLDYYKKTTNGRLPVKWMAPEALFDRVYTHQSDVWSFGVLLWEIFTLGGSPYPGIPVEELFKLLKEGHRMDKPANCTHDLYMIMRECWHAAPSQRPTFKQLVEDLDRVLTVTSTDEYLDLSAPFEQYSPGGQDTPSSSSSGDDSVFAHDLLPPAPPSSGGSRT

EPHB1 = EPHB1 (UniProt P54762); experiment: as above
Chain of EPHB1 (P54762 whole entry, looked up): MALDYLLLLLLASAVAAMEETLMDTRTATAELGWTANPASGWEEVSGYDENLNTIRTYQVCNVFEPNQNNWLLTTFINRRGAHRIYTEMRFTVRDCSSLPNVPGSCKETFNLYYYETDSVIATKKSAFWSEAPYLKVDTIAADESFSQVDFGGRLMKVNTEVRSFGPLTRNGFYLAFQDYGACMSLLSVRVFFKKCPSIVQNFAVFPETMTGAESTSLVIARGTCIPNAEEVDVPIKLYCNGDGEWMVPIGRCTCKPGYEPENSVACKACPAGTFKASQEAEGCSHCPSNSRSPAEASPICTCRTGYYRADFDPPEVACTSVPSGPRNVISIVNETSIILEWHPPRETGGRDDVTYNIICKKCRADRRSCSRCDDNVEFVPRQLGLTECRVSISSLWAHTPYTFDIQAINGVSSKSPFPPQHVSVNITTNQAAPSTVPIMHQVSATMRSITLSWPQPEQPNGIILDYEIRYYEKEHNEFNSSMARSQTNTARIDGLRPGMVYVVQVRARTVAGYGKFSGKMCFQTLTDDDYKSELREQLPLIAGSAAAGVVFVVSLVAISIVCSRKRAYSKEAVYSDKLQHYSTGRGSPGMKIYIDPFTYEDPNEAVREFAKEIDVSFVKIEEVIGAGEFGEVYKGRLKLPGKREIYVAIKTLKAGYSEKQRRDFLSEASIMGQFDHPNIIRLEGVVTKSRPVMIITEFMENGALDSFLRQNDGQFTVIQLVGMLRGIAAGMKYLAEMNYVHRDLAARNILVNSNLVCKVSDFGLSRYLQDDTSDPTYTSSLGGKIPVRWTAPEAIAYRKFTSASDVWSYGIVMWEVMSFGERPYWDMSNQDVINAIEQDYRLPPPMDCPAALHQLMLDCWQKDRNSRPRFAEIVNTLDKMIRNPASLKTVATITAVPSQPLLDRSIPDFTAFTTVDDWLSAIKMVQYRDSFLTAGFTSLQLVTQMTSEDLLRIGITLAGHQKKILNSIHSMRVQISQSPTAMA

c-Src = experiment: as above
Fes = Fes (UniProt P07332); experiment: as above
Chain of Fes (P07332 whole entry, looked up): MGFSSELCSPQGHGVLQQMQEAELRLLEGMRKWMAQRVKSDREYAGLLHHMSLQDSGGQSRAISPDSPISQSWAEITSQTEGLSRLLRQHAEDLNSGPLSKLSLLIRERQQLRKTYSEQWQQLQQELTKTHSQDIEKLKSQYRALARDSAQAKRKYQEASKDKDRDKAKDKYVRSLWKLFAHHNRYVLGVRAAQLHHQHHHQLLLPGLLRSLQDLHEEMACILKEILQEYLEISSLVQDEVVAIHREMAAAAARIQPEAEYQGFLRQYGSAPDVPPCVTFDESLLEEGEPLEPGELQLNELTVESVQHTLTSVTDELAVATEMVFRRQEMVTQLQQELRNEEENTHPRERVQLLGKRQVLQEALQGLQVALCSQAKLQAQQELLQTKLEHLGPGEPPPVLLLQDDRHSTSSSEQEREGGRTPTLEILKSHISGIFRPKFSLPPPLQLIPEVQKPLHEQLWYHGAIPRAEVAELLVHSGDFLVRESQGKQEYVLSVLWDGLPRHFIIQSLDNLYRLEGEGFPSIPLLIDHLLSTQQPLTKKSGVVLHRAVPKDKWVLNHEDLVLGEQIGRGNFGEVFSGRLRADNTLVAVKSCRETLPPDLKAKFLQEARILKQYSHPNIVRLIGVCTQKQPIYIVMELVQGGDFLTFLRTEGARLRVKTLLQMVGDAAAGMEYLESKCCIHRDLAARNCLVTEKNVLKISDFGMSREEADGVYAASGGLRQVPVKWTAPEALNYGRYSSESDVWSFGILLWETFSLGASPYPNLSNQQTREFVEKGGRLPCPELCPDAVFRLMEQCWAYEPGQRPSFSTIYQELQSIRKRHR

Fyn = Fyn (UniProt P06241); experiment: as above
Chain of Fyn (P06241 whole entry, looked up): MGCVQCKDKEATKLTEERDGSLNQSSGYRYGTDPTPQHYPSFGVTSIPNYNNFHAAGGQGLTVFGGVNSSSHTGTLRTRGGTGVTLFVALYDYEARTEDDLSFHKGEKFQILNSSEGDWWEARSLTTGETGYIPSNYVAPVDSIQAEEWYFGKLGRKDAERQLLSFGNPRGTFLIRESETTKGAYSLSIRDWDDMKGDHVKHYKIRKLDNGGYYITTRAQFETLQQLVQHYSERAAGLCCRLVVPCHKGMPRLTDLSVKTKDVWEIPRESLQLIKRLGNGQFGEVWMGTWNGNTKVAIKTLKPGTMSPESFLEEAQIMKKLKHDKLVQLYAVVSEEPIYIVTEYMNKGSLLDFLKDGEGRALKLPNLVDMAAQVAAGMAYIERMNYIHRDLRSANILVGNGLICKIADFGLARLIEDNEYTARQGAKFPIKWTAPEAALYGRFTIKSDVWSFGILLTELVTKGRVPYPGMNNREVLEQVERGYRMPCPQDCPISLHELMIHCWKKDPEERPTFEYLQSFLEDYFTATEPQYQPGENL

Hck = Hck (UniProt P08631); experiment: as above
c-Abl (mouse) = experiment: as above
EPHB2 = EPHB2 (UniProt P29323); experiment: as above
Jak2 = Jak2 (UniProt O60674); experiment: as above
SHP2-C SH2 = experiment: SH2 binding enrichment of the phosphorylated peptide, bacterial display (enrichment ratio); higher = better substrate or ligand; peptides without Tyr show the background
Grb2 SH2 = Grb2 SH2 (UniProt P62993); experiment: as above
c-Src SH2 = experiment: as above
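Throughout, for SH2 binding enrichment of the phosphorylated peptide, bacterial display: peptide library displayed on the E. coli surface as eCPX fusions, selected cells deep-sequenced, score is each peptide's frequency after selection divided by its frequency in the input.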
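Throughout, for phosphorylation enrichment, bacterial display: 11-residue human phosphosite peptides and single-mutation variants displayed on the E. coli surface, counted by deep sequencing, each peptide's frequency after selection divided by its frequency in the unselected input library; frequency after pTyr selection over input frequency; kinase dosed for 20-30% of maximal phosphorylation in three min.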

Chain of MERTK (Q12866 whole entry, looked up): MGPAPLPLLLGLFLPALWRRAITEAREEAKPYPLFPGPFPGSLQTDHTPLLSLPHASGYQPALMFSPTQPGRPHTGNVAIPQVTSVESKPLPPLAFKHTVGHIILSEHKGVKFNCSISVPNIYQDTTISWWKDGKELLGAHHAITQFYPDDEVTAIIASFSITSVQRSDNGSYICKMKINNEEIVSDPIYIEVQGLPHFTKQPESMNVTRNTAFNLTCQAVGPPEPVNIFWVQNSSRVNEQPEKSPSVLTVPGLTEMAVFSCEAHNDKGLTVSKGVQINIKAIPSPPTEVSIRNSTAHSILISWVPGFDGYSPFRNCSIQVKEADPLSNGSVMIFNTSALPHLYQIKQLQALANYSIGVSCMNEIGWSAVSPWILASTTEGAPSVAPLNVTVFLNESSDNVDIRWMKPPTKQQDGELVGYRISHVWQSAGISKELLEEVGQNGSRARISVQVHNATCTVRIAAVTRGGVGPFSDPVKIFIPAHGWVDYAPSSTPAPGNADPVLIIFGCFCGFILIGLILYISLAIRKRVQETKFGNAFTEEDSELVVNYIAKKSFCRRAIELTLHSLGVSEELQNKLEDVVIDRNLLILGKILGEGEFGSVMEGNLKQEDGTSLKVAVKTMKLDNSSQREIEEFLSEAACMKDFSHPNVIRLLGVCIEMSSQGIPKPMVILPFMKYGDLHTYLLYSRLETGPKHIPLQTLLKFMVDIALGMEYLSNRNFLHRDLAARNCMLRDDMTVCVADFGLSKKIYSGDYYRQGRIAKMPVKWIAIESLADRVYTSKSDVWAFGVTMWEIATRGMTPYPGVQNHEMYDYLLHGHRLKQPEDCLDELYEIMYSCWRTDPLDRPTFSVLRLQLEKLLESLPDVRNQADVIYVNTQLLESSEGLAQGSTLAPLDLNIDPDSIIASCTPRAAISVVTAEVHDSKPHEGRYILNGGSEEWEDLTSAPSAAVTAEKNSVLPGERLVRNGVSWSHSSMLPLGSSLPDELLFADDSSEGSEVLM

SH2 binding enrichment (SHP2-C SH2): 0.727
SH2 binding enrichment (Grb2 SH2): 1
SH2 binding enrichment (c-Src SH2): 1.21
Sequence: DDSSAYCSVDE [BCKDHA_Y345_R346C]
phosphorylation enrichment (MERTK): 0.505
phosphorylation enrichment (Fer (mouse)): 0.521
phosphorylation enrichment (AncSZ): 1.32
phosphorylation enrichment (FGFR1): 0.544
phosphorylation enrichment (FGFR3): 0.692
phosphorylation enrichment (EPHB1): 0.621
phosphorylation enrichment (c-Src): 0.535
phosphorylation enrichment (Fes): 1
phosphorylation enrichment (Fyn): 0.55
phosphorylation enrichment (Hck): 0.58
phosphorylation enrichment (c-Abl (mouse)): 0.712
phosphorylation enrichment (EPHB2): 0.505
phosphorylation enrichment (Jak2): 0.978

SH2 binding enrichment (SHP2-C SH2): 0.887
SH2 binding enrichment (Grb2 SH2): 1.07
SH2 binding enrichment (c-Src SH2): 0.66
Sequence: IGSQRYQLGVR [RB1_Y446_K447Q]
phosphorylation enrichment (MERTK): 0.385
phosphorylation enrichment (Fer (mouse)): 0.403
phosphorylation enrichment (AncSZ): 0.439
phosphorylation enrichment (FGFR1): 0.346
phosphorylation enrichment (FGFR3): 0.388
phosphorylation enrichment (EPHB1): 0.315
phosphorylation enrichment (c-Src): 0.343
phosphorylation enrichment (Fes): 0.534
phosphorylation enrichment (Fyn): 0.365
phosphorylation enrichment (Hck): 0.34
phosphorylation enrichment (c-Abl (mouse)): 0.451
phosphorylation enrichment (EPHB2): 0.303
phosphorylation enrichment (Jak2): 0.413

SH2 binding enrichment (SHP2-C SH2): 0.896
SH2 binding enrichment (Grb2 SH2): 0.846
SH2 binding enrichment (c-Src SH2): 0.452
Sequence: YRQNGYIPGSN [PCDHGA1_Y895_V894G]
phosphorylation enrichment (MERTK): 0.405
phosphorylation enrichment (Fer (mouse)): 0.423
phosphorylation enrichment (AncSZ): 0.485
phosphorylation enrichment (FGFR1): 0.399
phosphorylation enrichment (FGFR3): 0.439
phosphorylation enrichment (EPHB1): 0.381
phosphorylation enrichment (c-Src): 0.422
phosphorylation enrichment (Fes): 0.547
phosphorylation enrichment (Fyn): 0.384
phosphorylation enrichment (Hck): 0.405
phosphorylation enrichment (c-Abl (mouse)): 0.47
phosphorylation enrichment (EPHB2): 0.404
phosphorylation enrichment (Jak2): 0.467

SH2 binding enrichment (SHP2-C SH2): 1.81
SH2 binding enrichment (Grb2 SH2): 9.03
SH2 binding enrichment (c-Src SH2): 2.78
Sequence: NTYENYWPFYQ [GATM_Y103_K102N]
phosphorylation enrichment (MERTK): 9.93
phosphorylation enrichment (Fer (mouse)): 8.56
phosphorylation enrichment (AncSZ): 2.72
phosphorylation enrichment (FGFR1): 14.3
phosphorylation enrichment (FGFR3): 12.4
phosphorylation enrichment (EPHB1): 17.2
phosphorylation enrichment (c-Src): 7.27
phosphorylation enrichment (Fes): 4.54
phosphorylation enrichment (Fyn): 9.01
phosphorylation enrichment (Hck): 7.34
phosphorylation enrichment (c-Abl (mouse)): 2.79
phosphorylation enrichment (EPHB2): 22.2
phosphorylation enrichment (Jak2): 5.55

SH2 binding enrichment (SHP2-C SH2): 0.596
SH2 binding enrichment (Grb2 SH2): 0.675
SH2 binding enrichment (c-Src SH2): 0.443
Sequence: YPPTHYIRRVP [SLC4A11_Y820]
phosphorylation enrichment (MERTK): 0.469
phosphorylation enrichment (Fer (mouse)): 0.346
phosphorylation enrichment (AncSZ): 0.754
phosphorylation enrichment (FGFR1): 0.448
phosphorylation enrichment (FGFR3): 0.43
phosphorylation enrichment (EPHB1): 0.407
phosphorylation enrichment (c-Src): 0.449
phosphorylation enrichment (Fes): 0.678
phosphorylation enrichment (Fyn): 0.444
phosphorylation enrichment (Hck): 0.369
phosphorylation enrichment (c-Abl (mouse)): 0.601
phosphorylation enrichment (EPHB2): 0.492
phosphorylation enrichment (Jak2): 0.76

SH2 binding enrichment (SHP2-C SH2): 3.19
SH2 binding enrichment (Grb2 SH2): 1.58
SH2 binding enrichment (c-Src SH2): 2.83
Sequence: YFVVEYRNQKP [MUC17_Y4332_D4334N]
phosphorylation enrichment (MERTK): 4.22
phosphorylation enrichment (Fer (mouse)): 0.738
phosphorylation enrichment (AncSZ): 1.72
phosphorylation enrichment (FGFR1): 11.1
phosphorylation enrichment (FGFR3): 9.02
phosphorylation enrichment (EPHB1): 0.931
phosphorylation enrichment (c-Src): 0.836
phosphorylation enrichment (Fes): 1.36
phosphorylation enrichment (Fyn): 0.842
phosphorylation enrichment (Hck): 0.605
phosphorylation enrichment (c-Abl (mouse)): 0.722
phosphorylation enrichment (EPHB2): 0.842
phosphorylation enrichment (Jak2): 2.32

SH2 binding enrichment (SHP2-C SH2): 0.947
SH2 binding enrichment (Grb2 SH2): 0.689
SH2 binding enrichment (c-Src SH2): 1.78
Sequence: LQFRNYQQLFD [MAN2A1_Y442_K440R]
phosphorylation enrichment (MERTK): 0.789
phosphorylation enrichment (Fer (mouse)): 0.65
phosphorylation enrichment (AncSZ): 2.02
phosphorylation enrichment (FGFR1): 0.857
phosphorylation enrichment (FGFR3): 1.41
phosphorylation enrichment (EPHB1): 1.42
phosphorylation enrichment (c-Src): 1.03
phosphorylation enrichment (Fes): 2.25
phosphorylation enrichment (Fyn): 1.08
phosphorylation enrichment (Hck): 0.771
phosphorylation enrichment (c-Abl (mouse)): 1.3
phosphorylation enrichment (EPHB2): 0.928
phosphorylation enrichment (Jak2): 2.42

SH2 binding enrichment (SHP2-C SH2): 0.541
SH2 binding enrichment (Grb2 SH2): 0.736
SH2 binding enrichment (c-Src SH2): 0.462
Sequence: GNLLIYTEFGN [HGD_Y166_K171N]
phosphorylation enrichment (MERTK): 3.75
phosphorylation enrichment (Fer (mouse)): 0.775
phosphorylation enrichment (AncSZ): 1.31
phosphorylation enrichment (FGFR1): 0.726
phosphorylation enrichment (FGFR3): 0.903
phosphorylation enrichment (EPHB1): 2.71
phosphorylation enrichment (c-Src): 4.74
phosphorylation enrichment (Fes): 1.15
phosphorylation enrichment (Fyn): 5.81
phosphorylation enrichment (Hck): 3.51
phosphorylation enrichment (c-Abl (mouse)): 2.23
phosphorylation enrichment (EPHB2): 1.89
phosphorylation enrichment (Jak2): 0.997
